{"source": "patent US20150050259A1", "about": "“NUTRACEUTICAL MODULATORS OF STEM CELL ACTIVITY” (Creative Medical Health Inc., priority 2011, published 2015)", "origin": "cited, not measured here", "molecules": {"B1": {"name": "G-CSF: Granulocyte colony stimulating factor, cytokine drug used for neutropenia and mobilization of hematopoietic stem cells (protein, UniProt P09919 31-207, looked up)", "Granulocyte …": "TPLGPASSLPQSFLLKCLEQVRKIQGDGAALQEKLVSECATYKLCHPEELVLLGHSLGIPWAPLSSCPSQALQLAGCLSQLHSGLFLYQGLLQALEGISPELGPTLDTLQLDVADFATTIWQQMEELGMAPALQPTQGAMPAFASAFQRRAGGVLVASHLQSFLEVSYRVLRHLAQP"}}, "key": {"[1]": {"details": "patients after intensive chemotherapy"}, "[2]": {"details": "114 patients, 56 treated and 58 control"}, "[3]": {"details": "acute stroke patients"}, "[4]": {"details": "stroke patients"}, "[5]": {"details": "2.5, 5, or 10 μg/kg G-CSF for 5 consecutive days"}, "[6]": {"details": "between baseline and 12-month follow-up"}}}
{"molecule": "GH: growth hormone, a 191-amino acid, single chain polypeptide hormone naturally produced by the anterior pituitary", "values": [{"measurement": "abnormal growth or acromegaly after treatment", "setting": "[1]", "result": "no abnormal growth or acromegaly was observed"}, {"measurement": "recovery of platelets to 25×10(9)/l, median time", "setting": "[1]; P=0.03 versus placebo", "result": 16, "unit": "days"}]}
{"molecule": "B1", "values": [{"measurement": "influence on infarct size, left ventricular function, or coronary restenosis", "setting": "[2]", "result": "no influence on infarct size, left ventricular function, or coronary restenosis"}, {"measurement": "increase in the leukocyte count", "setting": "[3]; [5]", "result": "up to 75,500 /μl"}, {"measurement": "mobilization of CD34(+) cells", "setting": "[3]; [5]", "result": "Mobilization of CD34(+) cells was observed"}, {"measurement": "G-CSF toxicity in neuroradiological and neuropsychological follow-up", "setting": "[3]", "result": "did not disclose any specific G-CSF toxicity"}, {"measurement": "increase of CD34s over normal", "setting": "subcutaneous G-CSF", "result": 20, "unit": "fold"}, {"measurement": "safety of administration", "setting": "subcutaneous G-CSF 10 μg/kg for 6 days, revascularized STEMI patients", "result": "safe"}, {"measurement": "BI: change in the mean group score", "setting": "[4]; [6]", "result": 120, "unit": "%"}, {"measurement": "EMS: change in the mean group score", "setting": "[4]; [6]", "result": 106, "unit": "%"}, {"measurement": "ESS: change in the mean group score", "setting": "[4]; [6]", "result": 33, "unit": "%"}, {"measurement": "NIHSS: change in the mean group score", "setting": "[4]; [6]", "result": 59, "unit": "%"}, {"measurement": "adverse effects as a result of treatment", "setting": "[4]", "result": "no serious adverse effects"}]}
